Data taken from PMC5863373.

How the values were obtained:
p38 (Homo sapiens) = p38 (Homo sapiens) (UniProt Q13155); experiment: SPR; settings: cited from earlier work
[1] = biological target: human mitochondrial lysyl-tRNA synthetase with a C-terminal HA-tag (human) (UniProt Q15046); experiment: AlphaScreen or HTRF; HTRF; 1.5 nM mLysRS-HA or mLysRS∆C-HA (dimer) with rising His-tagged Pol (0.02 to 10 nM dimer), IN (0.5 to 125 nM dimer) or TF (1 to 1000 nM monomer); 10 mM Tris-HCl pH 7.5, 50 mM NaCl, 10 mM 2-mercaptoethanol, BSA 1 mg/ml, 1 h on ice; anti-H6-Eu3+ cryptate and anti-HA-XL665; apparent Kd
[2] = biological target: human mitochondrial lysyl-tRNA synthetase with a C-terminal HA-tag (human) (UniProt Q15046); experiment: as above; remark: listed apart in the source
[3] = biological target: human mitochondrial lysyl-tRNA synthetase with a C-terminal HA-tag (human) (UniProt Q15046); experiment: AlphaScreen or HTRF; HTRF as in a1, Pol on mLysRS in the presence of 1 μM tRNA3^Lys

Chain of p38 (Homo sapiens) (Q13155 whole entry): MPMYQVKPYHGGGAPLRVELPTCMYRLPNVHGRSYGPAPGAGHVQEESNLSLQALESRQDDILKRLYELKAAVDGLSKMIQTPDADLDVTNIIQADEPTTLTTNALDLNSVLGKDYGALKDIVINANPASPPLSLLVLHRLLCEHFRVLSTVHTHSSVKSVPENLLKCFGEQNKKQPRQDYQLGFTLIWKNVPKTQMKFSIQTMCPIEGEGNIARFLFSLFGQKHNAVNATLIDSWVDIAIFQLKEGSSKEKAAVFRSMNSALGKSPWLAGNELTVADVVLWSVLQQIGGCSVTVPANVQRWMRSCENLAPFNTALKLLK

Substance	Kd (p38 (Homo sapiens)) [nM]	Kd [1] [nM]	Kd [2] [nM]	Kd [3] [nM]
mLysRS (from UniProt Q15046)	0.3			
HIV-1 integrase with a C-terminal His6 tag (domain or fragment)		11.8	12.9	
HIV-1 Pol polyprotein (Pol region of GagPol) with a C-terminal His6 tag (natural protein)		1.3		0.71
